Measured values published in patent publication US20100129806A1.

What was measured:
[1] = biological target: myc-IP6K2 R133A mutant (human) (UniProt Q9UHH9); test: cell-based or functional assay
[2] = biological target: myc-IP6K2 E138-9A mutant (glutamates 138 and 139 mutated) (human) (UniProt Q9UHH9); test: cell-based or functional assay
myc-IP6K2 E138-9A mutant (glutamates 138 and 139 mutated) (human), sequence (Q9UHH9 other isoform, or with tags, fused parts or gaps mutant): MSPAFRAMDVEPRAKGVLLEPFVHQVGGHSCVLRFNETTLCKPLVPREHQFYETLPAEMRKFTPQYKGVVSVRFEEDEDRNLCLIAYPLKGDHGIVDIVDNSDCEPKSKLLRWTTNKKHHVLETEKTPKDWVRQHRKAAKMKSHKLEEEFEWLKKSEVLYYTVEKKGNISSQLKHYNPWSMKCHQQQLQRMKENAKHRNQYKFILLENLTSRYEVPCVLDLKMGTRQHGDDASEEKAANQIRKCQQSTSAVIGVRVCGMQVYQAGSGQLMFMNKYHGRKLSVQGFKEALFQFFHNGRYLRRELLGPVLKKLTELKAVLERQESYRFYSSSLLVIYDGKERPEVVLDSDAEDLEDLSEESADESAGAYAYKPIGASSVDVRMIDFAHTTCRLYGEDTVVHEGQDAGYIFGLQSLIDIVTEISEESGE

myc-IP6K2 R133A mutant (human), sequence (Q9UHH9 whole entry R133A): as the sequence (Q9UHH9 other isoform, or with tags, fused parts or gaps mutant) above, with R133A, A138E, A139E counted along it

## endogenous HSP90 of human cells (HEK 293, HeLa), also used purified from HeLa cells (from UniProt P07900 2-732)
[1]
  IP6K2 enzyme activity in vivo (fold of IP6K2wt): 2
  cell death of transfected HeLa cells (fold of wild type IP6K2): 5
[2]
  IP6K2 enzyme activity in vivo (fold of IP6K2wt): 2
  cell death of transfected HeLa cells (fold of wild type IP6K2): 5
